{"source": "the nanobody polyreactivity screen of Harvey et al. (2022)", "data": [{"assay": "yeast display, Sf9 membrane polyspecificity reagent, FACS + sequencing; frameworks hold sequencing errors", "in_short": "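A nanobody's polyreactivity label depends on the gate it was sorted from. Yeast display cells were stained with 10% biotinylated, detergent-solubilized Sf9 membrane reagent for 1 hour at 4 °C, enriched on streptavidin microbeads and sorted by FACS. The low and high (top ~1%) gates were set on anti-HA fluorescence for expression and streptavidin fluorescence for reagent binding.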", "values": [{"sequence": "QVQLVESGGGLVQAGGSLRLSCAASGLIFYAYVMGWYRPAPGKERELVAAITVSGGSTYYADSVKGRFTISRDNAKNTVYLQMNSLKPEDTAVYYCAADWNFYQRTFDSWGQGTQVTVSS", "polyreactivity (PSR sort gate)": "low polyreactivity"}, {"sequence": "QVQLVESGGGLVQAGGSLRLSCAASGLIFYDNMGWSRQAPGKERELVAAISSSGGSTSYADSVKGRFTISRDNAKNTVYVQMNSLKPVDTAVYYCAADSYPAYLGFVGFDYWGQGTQVTVSS", "polyreactivity (PSR sort gate)": "low polyreactivity"}, {"sequence": "QVQLVESGGGLVQAGGSLRLSCAASGLIFYGYVMGWYRQAPGKERELVAGISRNSGSTYYADSVKGRFTISRDNAKITVYLQMKSLKPEDTAVYYCDALKFEAWAGEDYWGQGTQLTVSS", "polyreactivity (PSR sort gate)": "low polyreactivity"}, {"sequence": "QVQLVESGGGLVQAGGSLRLSCAASGLIFYHNTMGWYRQAPGKEREFVASITQSGGSTYYADSVKGRFTISRDNAKNTVYLQMNSLKPEDTAVYYCAKRLRPGGYWYDYWGQGTQVTVSS", "polyreactivity (PSR sort gate)": "high polyreactivity"}, {"sequence": "QVQLVESGGGLVQAGGSLRLSCAASGLIFYKYAMGWYRQAPGNERELVAAISRGDNTYYADSVKGRFTISRDNAKNTVYLQMNSLKPEDTALYYCAAYRWIYQSQYQGYWLDYWGQGTQVTVSS", "polyreactivity (PSR sort gate)": "high polyreactivity"}, {"sequence": "QVQLVESGGGLVQAGGSLRLSCAASGLIFYLYAMGWYRQAPGKEMELVAAISSGGSTYYADSVKGRFTISRDNAKNTVYLQMISLKPEDTAVYYCNARYYYVSGLQAYYYWGQGTQVTVSS", "polyreactivity (PSR sort gate)": "high polyreactivity"}, {"sequence": "QVQLVESGGGLVQAGGSLRLSCAASGLIFYPYAMGWYRQAPGKERELVAGISSSGDSTYYADSVKGRFTISRDNAKNTVYLQMNSLKPDDTAVYYCNTGWDPYGYDYWGQGTQVTVSS", "polyreactivity (PSR sort gate)": "low polyreactivity"}, {"sequence": "QVQLVESGGGLVQAGGSLRLSCAASGLIFYRYAMGRYRQAPRKERELVAAISSSGGSTYYADSVKGRFTISRDNAKNTVYLQMNSLKPEDTAVYYCSARPSTHGYKYGYWGQGTQVTVSS", "polyreactivity (PSR sort gate)": "high polyreactivity"}, {"sequence": "QVQLVESGGGLVQAGGSLRLSCAASGLIFYRYAMGWYRQAPGKERELVAAISSSGGSTYYADSVKGRFTISRDNAKNTVYLQMNSLKPDDTAVYYCAARPSTHGYKYGYWGQGTQVTVSS", "polyreactivity (PSR sort gate)": "high polyreactivity"}, {"sequence": "QVQLVESGGGLVQAGGSLRLSCAASGLIFYRYAMGWYRQAPGKERELVAVITRSGGNTNYADSVKGRFTISRDNAKNTVYLQMNSLKPEDTAVYYCATRGIWKKVPYYYWGQGTQVTVSS", "polyreactivity (PSR sort gate)": "high polyreactivity"}, {"sequence": "QVQLVESGGGLVQAGGSLRLSCAASGLIFYSYAMGWYRQAPGKERELVAAISKRGGSTYYADSVKGRFTISRDNAKNTVYLQMNSLKPEDTAVYYCAAVIHGSSQYYGGTYGRYYWGQGTQVTVSS", "polyreactivity (PSR sort gate)": "high polyreactivity"}, {"sequence": "QVQLVESGGGLVQAGGSLRLSCAASGLIFYYNAMGWYRPAPGKERELVAAISWSGGSTYYADSVKGRFTISRDNAKNTVYLQMNSLKPEDTAVYYCNADYHSVRRDYWGQGTQVTVSS", "polyreactivity (PSR sort gate)": "low polyreactivity"}, {"sequence": "QVQLVESGGGLVQAGGSLRLSCAASGLIFYYNAMGWYRQAPGKERELVAAISTGGSTNYADSVKGRFTISRDNAKNTVYLQMNSLKPEDTAVYYCAAGTRNPYGYKMYYWGQGTQVTVSS", "polyreactivity (PSR sort gate)": "high polyreactivity"}, {"sequence": "QVQLVESGGGLVQAGGSLRLSCAASGLIFYYNAMGWYRQAPGKERELVATIRGSGSSTYYADSVKGRFTISRDNAKNTVYLQMNSLKPEDTAVYYCAAKGYRCFRHGGYYFKFDYWGQGTQVTVSS", "polyreactivity (PSR sort gate)": "high polyreactivity"}, {"sequence": "QVQLVESGGGLVQAGGSLRLSCAASGLIIPFYAMGWYRQAPGKERELVAAISWSAGSTYYADSVKGRFTISRDNAKNTVYLQMNCLKPEDTAVYYCAATAYYYYDYDYWGQGTQVTVSS", "polyreactivity (PSR sort gate)": "low polyreactivity"}, {"sequence": "QVQLVESGGGLVQAGGSLRLSCAASGLIIRYYAMGWYRQARGKERELVAAISYNGGSTYYADSVKGRFTISRDNAKNTVYLQMNSLKPEDTAVYYCAARLYGRYGYWGQGTQVTVSS", "polyreactivity (PSR sort gate)": "high polyreactivity"}, {"sequence": "QVQLVESGGGLVQAGGSLRLSCAASGLIISWYAMGWNRQEPGTERELVAAISSGGSTTYADSVKGRFTISRDNAKNTVYLQMNSLKPEDTAVYYCNADQVFGYNYWGQGTQLTVSS", "polyreactivity (PSR sort gate)": "high polyreactivity"}, {"sequence": "QVQLVESGGGLVQAGGSLRLSCAASGLIIWLYTMGWYRQAPGKERELVAAIDWSGGSTYYADSVKGRFTISRDNAKNTVYLQMNSLKPEYTAVYYCAADPEPSYRFDYWGQGTQVTVSS", "polyreactivity (PSR sort gate)": "low polyreactivity"}, {"sequence": "QVQLVESGGGLVQAGGSLRLSCAASGLILKNYAMGWYRQAPWKERELVAAITRSGGSTYYADSVKGRFTISRDNAKNTVYLQMNSLKPEDTAVYYCAARNPSGKGRYDYRGQGTQVTVSS", "polyreactivity (PSR sort gate)": "high polyreactivity"}, {"sequence": "QVQLVESGGGLVQAGGSLRLSCAASGLILNYYTMGWYRQAPGKERELVATISSSTGSTYYADSVKGRFTISRDNAKNTVYLQMNSLKPEDTAVYYCAADHWSYWQIYDFWGQGTQVTVSS", "polyreactivity (PSR sort gate)": "low polyreactivity"}, {"sequence": "QVQLVESGGGLVQAGGSLRLSCAASGLILRKYAMGWYRQAPGKEREFVAAITQTGSRTYYADSVKVRFTISRDNAKYTVYFQMNSLIPEDTAVYYCNAVNYRSSRDSGYWGQGTQVTVSS", "polyreactivity (PSR sort gate)": "high polyreactivity"}, {"sequence": "QVQLVESGGGLVQAGGSLRLSCAASGLILRRYAMGWYRQAPGKERELVAAITSGGRTYYADSVKGRFTISRDNAKNTVYLQMNSLKPEDTAVYYCNAVKLVRHTTPYDYWGQGTQVTVSS", "polyreactivity (PSR sort gate)": "high polyreactivity"}, {"sequence": "QVQLVESGGGLVQAGGSLRLSCAASGLILSDYVMGWYRQAPGKEREFVAAITSTGGSTYYADSVKGRFTISRDNAKNTVYLQMNSLKPEDTAVYYCAVRIHFPFPRRYYYWGQGTQVTVSS", "polyreactivity (PSR sort gate)": "high polyreactivity"}, {"sequence": "QVQLVESGGGLVQAGGSLRLSCAASGLILYNYAMGWYRQAPGKERELVAAISRSGGSTYYADSVKGRFTISRDNAKNTVYLQMNSLKPEDTAVYYCKVGYGRGSTIGGYDYWGQGTQVTVSS", "polyreactivity (PSR sort gate)": "high polyreactivity"}, {"sequence": "QVQLVESGGGLVQAGGSLRLSCAASGLISDRNAMGWYRQAPGKERELVASIRSGGSTYYADSVKGRFTISRDNAKNTVYLQMNSQKPEDTAVYYCAAGGGHTPVSYYLVPYMDYWGQGTQVTVSS", "polyreactivity (PSR sort gate)": "low polyreactivity"}, {"sequence": "QVQLVESGGGLVQAGGSLRLSCAASGLISRRNAMGWYRQAPGKERELVAAISTGSSTNYADSVKGRFTISRDNAKNTVYLQMNSLKPEDTAVYYCAATQYWWSTLGIRDDYWGQGSQVTVSS", "polyreactivity (PSR sort gate)": "low polyreactivity"}, {"sequence": "QVQLVESGGGLVQAGGSLRLSCAASGLISSINAMGWYRQAPGKERELVATITSGGSTYYADSVKGRFTISRDNAKNTVYLQMNSLKPEDTAVYYCAARSSVRAYYSWGHGTQVTVSS", "polyreactivity (PSR sort gate)": "high polyreactivity"}, {"sequence": "QVQLVESGGGLVQAGGSLRLSCAASGLNFARNAMGWYRQAPGKERELVAAISSSGNTYADSVKGRFTISRDNAKNTVYLQMNSLKPEDTAVYYCAADYVRWGQRKRSRYYYWGQGTQVTVSS", "polyreactivity (PSR sort gate)": "high polyreactivity"}, {"sequence": "QVQLVESGGGLVQAGGSLRLSCAASGLPFRDYAMGWYRQAPGTERELVAAISDGDDSTSYADSVKGRFTSSRDNAKTTGYLQMNSQNPEDTAVYDCAPYLSDPDFLAGIYGLYNYWGQGTQVTVSS", "polyreactivity (PSR sort gate)": "low polyreactivity"}, {"sequence": "QVQLVESGGGLVQAGGSLRLSCAASGLSFGDYTMGWYRQAPGKERELVAAITGSGASTYYADSVKGRFTISRDNAKNTVYLQMTRLKPEDTAGYYCAAERTPSYRAYDYWGQATQVTVSS", "polyreactivity (PSR sort gate)": "low polyreactivity"}, {"sequence": "QVQLVESGGGLVQAGGSLRLSCAASGLSFPLNAMGWYRPAPGKERQLVAAITYSGGGTYYADSVKGRFTISRDTAKNTGYLQMNSLKTEDTAVYYCAADGSVSYYTYYYWGQGTQVTVSS", "polyreactivity (PSR sort gate)": "low polyreactivity"}, {"sequence": "QVQLVESGGGLVQAGGSLRLSCAASGLTCASYVMGWYRQAPGKERELVAAISSSGDSTYYADSVKGRFTISRDNAKNTFYLEMNSLKPEDTAVYYCASNDYVWGQGTQVTVSS", "polyreactivity (PSR sort gate)": "low polyreactivity"}, {"sequence": "QVQLVESGGGLVQAGGSLRLSCAASGLTCYYYARGLYRQAPGKERELVADISSGGSTKYADSVKGRFTISRDNAKNTVYLQMNSLKPEDTAVYYCATGYFCGFRYRPYYYWGQGTQVTVSS", "polyreactivity (PSR sort gate)": "high polyreactivity"}, {"sequence": "QVQLVESGGGLVQAGGSLRLSCAASGLTFADNTMGWYRQAPGKERELVAAIDWSGGGTDYADSVKGRFTISRDNAKNTVYLQMNSLKPEDTAVYYCNAERTSWEDDYWGQGTQVTVSS", "polyreactivity (PSR sort gate)": "low polyreactivity"}, {"sequence": "QVQLVESGGGLVQAGGSLRLSCAASGLTFAGNAMGWYRQAPGKEREFVATITWSDGSTRYADSVKGRFTISRDNAKNTVYLQMNSLKPEDTAVYYCNTQYPDYFYEFNYWGQGTQVTVSS", "polyreactivity (PSR sort gate)": "low polyreactivity"}, {"sequence": "QVQLVESGGGLVQAGGSLRLSCAASGLTFAGYAMGWYRQAPGKERELVAAISSGGRTNYADSVKGRFTISRDNAKNTVYLHMNSLKPADTAVYYCAARISTHAPHRRLTYEYWGQGTQVTVSS", "polyreactivity (PSR sort gate)": "low polyreactivity"}, {"sequence": "QVQLVESGGGLVQAGGSLRLSCAASGLTFAYNAMGWYRQAPGKARQLVASINWSDSSTYYADSVKGRFTISRDNAKNTVYLQMHSLKPEDTEVYYCAADAYYVGQGYDYGGQGTQVTVSS", "polyreactivity (PSR sort gate)": "low polyreactivity"}, {"sequence": "QVQLVESGGGLVQAGGSLRLSCAASGLTFAYYAMGWYIQAPGKERELVAAITWNGGSTYYADSVKGRFTISRDNSKNTVYLQMNSLKPEDTAVYYCAASWGYCYSGRFDYWGQGTEVTVSS", "polyreactivity (PSR sort gate)": "high polyreactivity"}, {"sequence": "QVQLVESGGGLVQAGGSLRLSCAASGLTFAYYDMGWYRQAPGKERELVAAITSGGTTNYADSVKGRFTISRDNAKNTVYLQMNSLKPEDTAVYYCNADYYSRIVGVRIYDYWGQGTQVTVSS", "polyreactivity (PSR sort gate)": "low polyreactivity"}, {"sequence": "QVQLVESGGGLVQAGGSLRLSCAASGLTFDEYAMGWYRQPPGKERELVARITQSGGSTYYADSVKGRFTISRDNAKNTVYLQMNSLKPEDTAVYYCNAGAPARYWWEGDYWGQGTQVTVSS", "polyreactivity (PSR sort gate)": "high polyreactivity"}, {"sequence": "QVQLVESGGGLVQAGGSLRLSCAASGLTFDSNVMGWYRQAPGKERELVAAITSSGRTYYADSVKGRFTISRDNEKNTVYLQMNSLKPEDTAVYYCAARNLAYTRKGYYYWGQGTQVTVSS", "polyreactivity (PSR sort gate)": "high polyreactivity"}, {"sequence": "QVQLVESGGGLVQAGGSLRLSCAASGLTFDSNVMRWYRQAHGKEMELVAAITSSGRTYYADSVKGRFTISRDNAKNTFYLQMNSLKPEDTAVYYCAARNLAYTRKGYYYWGQGTQVTVSS", "polyreactivity (PSR sort gate)": "high polyreactivity"}, {"sequence": "QVQLVESGGGLVQAGGSLRLSCAASGLTFDTYAMGWYRQAPGKERELVAAISICGRTNYADSVKGRFTISRDNAKNTVYLQMNSLKPQDTAVYYCAVGAVVPGRRRRTYYYWGQGTQVTVSS", "polyreactivity (PSR sort gate)": "high polyreactivity"}]}]}
